Assay: label from the status in PepcDB records
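Further: failed if final PepcDB status was selected cloned or expressed and not failed if soluble or beyond.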

Sequence | protein production
MQKSDALALDGSAALAEPVPATEIARGIAVLAAPTSLVAFLQAGAQLIETWLAARQGTASLAGWAVVLPFALLLQQMSTGAMGGGVVSAIARALGGGKREEASSLVLHALIIAVTAGLIFAIVLAGFPRSVFGAVAGATAAEAAASYAIWLFGAGAVPAWLANTLASVLRGGGRHALAARVLGGMWVVFPVLSWWLAERVGMGLAGIGAALAAVSWGAALVMAYVVFRGGAGFVPSLRIRPSKALFYRILSIGLVACALASVANLTTILVTAQLRHYGTTTVAAYGISARLEFLMIPLAFGVGSALTALVGRAVGAGDWHTARRTAWVGALLALLIAGTVGAAVGLAPNQFAGLFTQDPNVGAIAARALSWVGPAFGGFGLGMALYFASMGAGRMRWPIAAGLCRIALAAGGGWLLANVAGMGLDGHFLGVALGITSYGLVTAIGVRKGEWSPRH | failed
MTNLELSGSQSYLNDESTANLSSLAGKFLVQFWGVRGLIPTPSSNTSRYGGNTACVEMQVAGKRLIFDGGTGLRILGKAWQHLQQPLEAHLFFTNSQSNRIQGFPFFAPAFIAGNCFHIYGGAASNGASIKQCLCDQMLQPHFPYPLQVMQSELQFYPLTPDSEVKLDDVTIRTALINQTQRSIGYRVTWQEYSVAYVTDLNMSAEQGEREQVLQIIQDVDLLIANATYTPPTSHDHESVDLLWQAAVEMAQKAGVRKLIISHHHPDDHDDFLDQVEKEVQSTFSDALLACEGLALPVFLEHHHHHH | not failed
MFVAREHELQVLEKLFTSDSFEMVVLYGRRRVGKTALIDEFVKDKRVLYFTAIQQSAKMNLEDFSRAALSFFGMPDSTPSFGGWSDALSFVAERAAQTDERMVFVFDEFPYAAAAEPALPSMLQIAIDHGFLATKVTMILSGSNEGFMENDVLGRKSPLYGRRTAQIRLLPFDYADAAKFLTNTSPQELVQYYATFGGTPYYLARIQEADGFESNVLRLMFDNLGVLREEPMMLLRQELREPASYYSILQSIAGGNSSPKLIAEHAGVGSDSIGAYLKTLVDLRLIERKVPFGEDPSKSRKGMYVVSDPFFAYWFRFVGRNMSILDGNISEEVTSRLAFGPAFDTYVGQQFETICLQWLIRNNAMGNLPFVATQFGKWWGNDPIAHEQTDIDVIAADSLDKTILFGECKWRNSFNETEAIEKLHQRAGLVRGYQAGNAWLMLFTKNPVSESTRTRYMDDERMVFVSAEELYTALEHHHHHH | failed
MDAKVAFSPHSDANGRLDEIGADIDTAQSSVLFSLAFLGQMTRGAIGPALGRALERPEVHVMGIADAEVRAGNLGLNVLTPDNRRRVVRAAALTGNVPPPFLTEPSGLAGVDGNQRGTRMHHKFVVLDFDKPTARVYLGSYNFSNPADDENGENLVVVRDRTVATSYMIEALRMYDHLEHHHHHH | failed
MEKKKPFSVLLMGSDARPGETNGRADTIILATANKQQNAVEMVSIPRDTKVDYGNGDIGKINASYSNGGPSGTVSAVEKLMPGVPVDYFISINMEGFKDLVDAVGGITVYNDIDLTEVNSKFVKGNITLNGTDALQYVRIRHEDPRGDFGRQDRQRDVIIGIANKVISSSGVSNFESIMKAVGDNFQTNMTLTDITSMATNYSSVLKNVDSQELKGEGEMIYSESYGFDLYYFAPDETDLERVINMFKKSLDITELEHHHHHH | not failed
RQQSMAERHDYDQKEEKTDGGELVSSYMCSPETAAEEFEISKKLYAQLTGRSQSEKHDIIMYRIIQSFKPDEVSPEEAHKIGCELAMKFTGGQHQFVVATHTDKRHIHTHIEFNSTNLNCDAKFQNVKNSAFILRRMNDELCRAHGLSVIENPKKKARPQKEMAAAQYGVSHKKQLQQAIDRLLPECNHYEEFLAKMRAEGYEVVDGKNPGFRLPGWDRPTRVNRLG | not failed
MLKRLSVVHSPNGAPMAPSSHEWTDTLKDVYTARAANADLNARYIPLLPVNQRIQHERDRALANMLRQHLSVPPAQARVLEVGCGSGSNLLDLIRLGFDPANLMGNDLMDSRVEQARHRLPQAVPILAGNALDLDLEREGFDVLYQSTVFTSILDAQARRDLAQRMWHWTKPGGGVLWYDFAYNNPRNPNVRGVPLREVRALFPHARIHTARVTLAPPLARRLPATLYAPVNNLCPFLRTHLLCWIGKPAAP | failed
MMKDMTTGNPTKLIFLFAMPMLIGNLFQQFYTMIDAVIVGKFVSVDALAAVGATNSVNFFMISLIIGLMSGISVVVAQYFGFKDYDRLKDVIATATYAVVFSAIILTVAGVLLAKPLLILLRTPANILDDSTIFLTTLFIGILPMSLYNGMAAILRALGNSITPLIFLILSSLMNIALDFLFVVYMDMGVRGAAIATVLSQTAAAIAVIYYAYRHVPFMRIERAKFKLSTPLLKEMVRIGLPSGLQGSFISIGNMALQSLINGFGSSVVAAYTAASRIDSLTYQPGIAFGAASSMFAGQNIGAGKIDRVREGFWSGIKVVTAISIGITILVQLFARQFLLLFVDSSETEVINIGVSYLLIVSLFYVVVGILFVVRETLRGTGDAMVPLAMGIFELVSRLVIGFVLSLYIGYVGLWWATPVAWITATILGVWRYKSGAWQKKAVIRRK | not failed
SSISRANKKKPSMPNVSNDLSQKLYATMEKHKEVFFVIHLHAGPVINTLPPIVDPDPLLSCDLMDGRDAFLTLARDKHWEFSSLRRSKWSTLCMLVELHTQ | failed
MALTTISPHDAQELIARGAKLIDIRDADEYLREHIPEADLAPLSVLEQSGLPAKLRHEQIIFHCQAGKRTSNNADKLAAIAAPAEIFLLEDGIDGWKKAGLPVAVNKSQPLPLMRQVQIAAGGLILIGVVLGYTVNSGFFLLSGFVGAGLLFAGISGFCGMARLLDKMPWNQRA | failed
KRSHLENALNYALENSETAYNEMFLECDKQFILESWLNDFDLTKDYNETMHLVFSIKDKPDEETMQGLLHSTWESLKIRLPEYKFALVPHAHQDHAHIHCFINKTNQLTRRRLRFKGHEDCKEFFNELRSEFAYRLNDHLLSEEYLYVNEPKLKELDNIKQQLQDLEKEEKALEQIKSPQDEWDLNKALQSEYLQELKYKNKAKALDIQNNHSTPLKQKISEFKIALFNHKDTSDDEKEQLDIDRIDKRKPVSEHLKNTNKHELYELLGFYQKELDKKQNHSAFKNFAILNGLDRDFERETNGYSVLKKKEMLLNKLEHLDKRLLDKNSHLLLAQ | failed
MSGTLFTYRRKVDFGDCDSARIYFTPRAVDYAVEAVEAWFGDVLGVSWADLFLRHDLDVTFVRMGCEYFRPVIADQTVHVRVRATAVDRSSVTFSAAGEDDSGGVFFRATLVAQFRAGRNRAPVPIPPRYRERMEDCLEQADGKSGTVAQRVGGEPFLSRLQSDGVHFTVRRRVVYGDCTLSGTVYAPRLFNYAVEAVGEWYRETLGISWREQCIRLRGAPFREVWCERLAPLVPGQVITMTVGIPRLGKSSIGYEVVGYDDRGEPCFQVGMSACYISEETGSIKAIPFPDDMRSRILAYQVLCDQGVIPATAS | failed
SSQGFIFNLSRPMFQDRRVRQALSLLWDFEWTNRQMMRNMYIRQDSYFSNSELAASQLPTPAELKILEPLRGTVPKEVFDTVFKTPKTDGTGLIRDKQLQALALMKEAGWTPKGDELVNAQGEPFSFTFLNAQSGFERMLLPYKRTLAQIGIHFDIRRIDSAQYLNRVMARDYDMIVTGYPVSTSPGAELYNSFGSKVAMDPGSSNYMALQDPAVDTLIAGLVKADNKQTMTDYAHCLDRVLQWNYYWIPNYYPP | failed
MFHLIRWQDIADIIIMSFLAYRLYSWFRHTRAMQVLIGLGILAGVYFVTRNLGLFMTSWILQELGTVLFVLIIVVFQAEIRQALYRFSLLRTFIGRQEGGGELDLAELGRTVFGLARERTGALIVLQRQEALDDYLLHGVKVDGLPSSHLLGSIFRNGTPLHDGAVIIKDGRVSQASCHLPLSMKTELPQNFGTRHRAGIGLSERSDAVVIIVSEERGEVGMALAGEYRKIASPEEFAEVIQGLLYPQRPENVAFTLRQRLLRNLVPKIVTTLIVIAGWLVVTTKEGGIFTVTVPIKFHNLPPRSVLVKSVPESVEVQLKVFTSLIPSPRQLDLVADLNLAGVHDGVNSLAVKDDDLNLPLGVVVTGINPPMVKVTIAGKERKQLRVRPKLTGQLPGRAKLRSVTADPDTVVVEGPGHLLEGLESLPTETVDLAGLRRGGVVERRVVSPSPQIRVLRDEPVRVVVVTSVK | failed
MTPFTLCAATSSGNPHNNHYPNHHHITDQTSLEQVAWLDHVAATYTGDRRSSASFISSDCVVMDIDNDHTDNPDEWITPDDLAELMAGVEFMTATSRNHQKPKRTLSARPRFHVYFPISPVTDADTYAGLKRRLAGRFGFFDPQALDAGRFIYGTTNPETTIHNGTKLLDAWLDEADEIDVFAAFDASTQVIGEGSRNATLSRFAGRVLIRYGQTAQARDLFDRKASLCEPPLSDHELESIWQSACRFAAKVEAQPGYLSPEAYAELTSLRPEDFTDVGQASMLTAEYSSRLAFTEATDWLVYEGGVWSESAPAAQGIAQELTDRQLAEAGHLLEKARDELMVTGANAVLAAASSKAKALGGFTSPQRAAYRAFEDAKAYEAFVLKRRESRAITSCLREAHPMLLTTPARLDADPYLLNTPGGTWDVRDGTRRDHNPLDLITKQTALDPTDTGAEIWNRALNVFFQSDRELIGYVQRIVGLAAIGTVMVEALVIAYGDGRNGKSTFWNTIARVLGTYAGNMSADVLTIGGNRNVKPELAEAKGKRLIIAAESEEGVRLSTSTVKQLASTDQIYAEKKYKAPFAFTPSHTLILYTNHLPRVGAMDAGIWRRLIVIPFNAVIESSSDVKNYADHLYETAGGAVLAWIMEGSRLIHAEDYQLTPPAQVVAASSAYREENNWFAQFLDARCEVDPSLSERAGDLYQEYRAWAQSTSGWARPMADFNATLEQSGFERRKSKHGMYVYGLALTSEFNS | failed
MDTAVVYYVLATALVLIGLAGVILPALPGLPLVFAGLLVAAWADNFTHIGWVTLVVLGLITALSYLVDFLATLYGAQRVGASKMALWGSVIGGIAGIFFMPIGLFIGPFAGAWLGEYYQTRKSGQATKVGIGTWVGIMLGTATKLALGLCMLGAFAIGWFF | failed
KGLDKWGIYVPESAAQSVKDAVFEAGAGAIGDYSQCSFEWQGTGQFLPHHNAQPVVGHPGQLERTEELRVEFVAPARLRTTLIDAIRAAHPYEEPAFDVVSMQSTQDLETAEGLGRVGTLPEPMRFGDFVQQVADALPETSWGIRAAGDPEQMVHTVAVSSGSGDSFLDAVAALGVDVYVTSDLRHHPADESRRAQGPLLIDTAHWASEFPWTYQVQELLAQEFAQLDVEVATLRTDPWNISAHPQLR | not failed
MKLWENGTFYQMTAEGEQVSAVLTKNGQIHAVGEVADLKKQYATEIDETIDLEGKVVFPGFVDAHIHLLWYGQALERLNLNQTTTKKEALALEHHHHHH | not failed
HRAQRQQMTVLRGDAQSIDIIDLQTFIDSFEEHIWVKNTEGVYTICNQSVEKAWDLPRSDIVGKTDEDLFGKAIADIFLNGDRLAIEAGAPIIVAECLDGENKNNHLWLETLKLPALTPDGELAGVIGMTRNISKHKEVEEQLTLATNVFKHSF | failed
MSAQVPRELLQLREQVRRQPGDFVAWLMLADAELGMGVTAAGETAVQRALALHPGHPEAVARLGRVRWAQQRHAEAATLLQQASDLVPQHPGIALWLGHALEDAGQPEQAAAAYTRAHKLLPDEPYITAQLLNWRRRLCDWRELDSLAAQVRTAVTQGEAAVEPFAFLSEDASAAEQLACARTRAQAIASSVHPLPAATLRSRGTLQLGFVSNGFSAHPTGLLTVALFEALRRRQPDLQVQLFATSPDDGSDIRARLAQATRMHDVTALGHLATAQHIRNQGIDLLFDLRGWGGGGRPEVFALRPAPVQLNWLAYPGTSGAPWMDYVLGDAIALPTWLEPFYSEQVLRLPRAFQPSDTSRTVAEAPSRAQCGLPDHAVVLCCFNNSYKLNPRSMARMLAVLRAVPGSVLWLLSGPGEADARLRAAAQAQGVHAQRLVFMPKLPHPQYLARYRHADLFLDTHPYNAHTTASDALWAGCPVLTTPGQTFAARVAGSLNHRLGLDEMNVADDATFVAKAIELASDAEALRGVRAQLAEQRLRSGLFDMDGFADDLAALLRGIAQRRGWLGV | failed
MSQEIAVIGSPAFTTGFQLAGVRKVENVADDEKDDDLDAAVEAVLADEDVGIAVMHDDDLAHLSRGVRQSVEASVEPTFVTIGGGASGASGLRDQIKRAIGIDLMDDDDDASAADTEAGDLEHHHHHH | not failed

Reference: a protein production outcome set (Wang et al. 2014)
